In publication PMC4046507 (2014):

Target: T1, proteolipoprotein (PLP), substituted analog peptide on I-Ag7 (mouse, substituted analog of PLP 56-70 carrying lysine for tyrosine at positions 57 and 59 (residues worked out from the printed peptide and this description; the analog's own residues are not given))
T1 peptide: DKEKLINVIHAFQYV
Test: cytokine release

B1: Th2-derived TCRαβ transgenic receptor (TRAV17 TRAJ50 / TRBV31 TRBJ2-3) (TCR)
alpha TRAV17 TRAJ50 CDR3: CALEGIASSSFSKLVF
beta TRBV31 TRBJ2-3 CDR3: CAWSLGGGAETLYF
  binding result: recognises
